Source: patent US20080279957A1, “Immunomodulating compositions from bile” (Lorus Therapeutics Inc., priority 2000, published 2008)

Legend:
[1] = system: tumor cells (monocyte cytotoxicity assay); test: Effect of indomethacin on tumoricidal function of cancer patients' monocytes (Example 15); details: for regulation of tumoricidal function by an indomethacin-sensitive function: indomethacin up to 5 ng/ml
[2] = system: mouse hybridoma cell line HYB #6-1; test: Antiproliferative bioassay in mouse hybridoma cells (Example 4); assay type: cell-based; details: procedure of Example 4
Protocol: The bioassay is carried out as follows. […] Hybridoma cell samples are specifically quantitated. Using a hemocytometer the calls in a 100 μl sample are counted. The cells are concentrated by centrifugation and then cell concentration is adjusted to 1,000 cells/ml (twice the final desired concentration) by addition of appropriate volumes of fresh media. […] After 96 hours, each well is sampled at 100 μl×3 and placed in a 96 well plate. (A blank of 100 μl of medium without cells is included.) Cell density is determined using a PROMEGA CellTiter 96 kit. Cell concentration is measured by reading absorbance at 595 nm (650 nm reference) and recorded by ELISA plate reader. For each assay, a standard curve of cell concentration is prepared. Cultured cells in the log phase of growth are sampled, counted, concentrated and resuspended in serial dilutions. Each dilution is sampled at 100 μl×3 and placed in a 96 well plate. The standard curve is constructed by plotting cell density versus “net” OD at 595 nm after subtraction of zero cell blanks and OD at 650 nm. Cell density of unknown samples is determined by interpolation.

lymphocytes = test: Stimulation of lymphocyte DNA synthesis; assay type: cell-based, human; details: optimal stimulating concentration of PHA
Protocol: These indicators of immune function also can be modulated in cancer patients who are treated with different biological response modifying agents such as interferon or interleukin-2.
1) Stimulation of Lymphocyte DNA Synthesis: Comparison with an Optimal Stimulating Concentration of Phytohemagglutinin (PHA)

[3] = system: tumor cells (monocyte cytotoxicity assay); test: Tumor cytotoxicity of peripheral blood monocytes from patients with gynecological disease (Example 14); details: Monocyte/Tumor Cell ratio 15/1; 7 patients (3 benign, 4 malignant); composition 1:10 of batch 222, gamma interferon 100 U/ml, interleukin-12 500 U/ml, monocyte-CSF 500 U/ml
Source text: More particularly, the patient population consisted of 7 patients, 3 with benign disease and 4 with malignant disease (2 ovarian cancers, 1 endometrial cancer, and 1 cervical cancer). Samples were removed from patients at the time of surgical procedure.

[4] = system: tumor cells (monocyte cytotoxicity assay); test: Tumor cytotoxicity of peritoneal macrophages from patients with gynecological disease (Example 14); assay type: cell-based, human; details: Monocyte/Tumor Cell ratio 15/1; 7 patients (3 benign, 4 malignant); composition 1:10 of batch 222, gamma interferon 100 U/ml, interleukin-12 500 U/ml, monocyte-CSF 500 U/ml
Source text: Immunother 32:55-61, 1990.

Molecule	regulation of tumoricidal function by an indomethacin-sensitive function [1]	% Tumor Cytotoxicity (+/−S.E.) Peripheral Blood [3]	% Tumor Cytotoxicity (+/−S.E.) Peritoneal Macrophage [4]	other results
CCCCCCCCCCCCCC(=O)O[C@@H]1[C@@H](C)[C@@]2(O)[C@@H](C=C(CO)C[C@]3(O)C(=O)C(C)=C[C@@H]23)[C@@H]2C(C)(C)[C@]12OC(C)=O [Phorbol Ester (PNA)]	not regulated by an indomethacinsensitive function			
C[C@H](CCC(=O)NCCS(=O)(=O)O)[C@H]1CC[C@H]2[C@@H]3[C@H](O)C[C@@H]4C[C@H](O)CC[C@]4(C)[C@H]3C[C@H](O)[C@]12C [sample (1), taurocholic acid]				anti-proliferative activity, in words [2]: Neither sample (1) nor sample (2) had any detectable anti-proliferative effect
N.O [sample (2), NH3.H2O]				anti-proliferative activity, in words [2]: Neither sample (1) nor sample (2) had any detectable anti-proliferative effect
Phytohemagglutinin [PHA]				Stimulation of lymphocyte DNA synthesis (lymphocytes): 125,817 Counts per Minute
gamma interferon [IFN-γ]	regulated by an indomethacin-sensitive function			
granulocyte macrophage colony stimulating factor [GM-CSF]	regulated by an indomethacin-sensitive function			
interleukin-12 [IL-12]	not regulated by an indomethacinsensitive function	26.0 ± 4%	8.5 ± 2%	
monocyte-CSF (protein, UniProt P09603 33-554, looked up) Macrophage colony-stimulating …: EEVSEYCSHMIGSGHLQSLQRLIDSQMETSCQITFEFVDQEQLKDPVCYLKKAFLLVQDIMEDTMRFRDNTPNAIAIVQLQELSLRLKSCFTKDYEEHDKACVRTFYETPLQLLEKVKNVFNETKNLLDKDWNIFSKNCNNSFAECSSQDVVTKPDCNCLYPKAIPSSDPASVSPHQPLAPSMAPVAGLTWEDSEGTEGSSLLPGEQPLHTVDPGSAKQRPPRSTCQSFEPPETPVVKDSTIGGSPQPRPSVGAFNPGMEDILDSAMGTNWVPEEASGEASEIPVPQGTELSPSRPGGGSMQTEPARPSNFLSASSPLPASAKGQQPADVTGTALPRVGPVRPTGQDWNHTPQKTDHPSALLRDPPEPGSPRISSLRPQGLSNPSTLSAQPQLSRSHSSGSVLPLGELEGRRSTRDRRSPAEPEGGPASEGAARPLPRFNSVPLTDTGHERQSEGSFSPQLQESVFHLLVPSVILVLLAVGGLLFYRWRRRSHQEPQRADSPLEQPEGSPLTQDDRQVELPV	regulated by an indomethacin-sensitive function	16.0 ± 2%	7.0 ± 2%	% cytotoxicity ([1]; peripheral blood monocytes from cancer patients, activator alone or with indomethacin (up to 5 ng/ml) added simultaneously): 14.1 ± 3%
gamma interferon (protein, UniProt P01579 24-161, looked up) Interferon gamma: QDPYVKEAENLKKYFNAGHSDVADNGTLFLGILKNWKEESDRKIMQSQIVSFYFKLFKNFKDDQSIQKSVETIKEDMNVKFFNSNKKKRDDFEKLTNYSVTDLNVQRKAIHELIQVMAELSPAAKTGKRKRSQMLFRG		18.3 ± 2%	9.5 ± 1%	
